Measured values published in the supplement of paper PMC11780869.

These sequences were tested on Bacillus subtilis (assay: cleaved RNA product abundance (RNA/gDNA barcode ratio) relative to median wild-type variant (ratio to wild type); higher = more accumulation of the downstream cleavage product). Conditions: experiment (reporter, strain, medium): exp 2b: truncated aprE reporter, strain BJT200; cleavage site: cggR-gapA (positions -7 to +36 mutated).
Method in brief: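 Cleaved product abundance was measured with barcoded reporter mRNAs (truncated aprE or tetM) carrying mutagenized RNase Y cleavage-site windows in the B. subtilis chromosome. Cultures in LB at 37°C grew from OD600 0.0003 to 0.3. Gel-selected cleaved RNA was reverse transcribed and barcode-sequenced with genomic DNA barcodes, and the RNA:gDNA barcode ratio per construct was scaled to the median construct bearing the unmutated site.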

Sequence | cleaved RNA product abundance
ACAGACGAAGGAGCCGCTAAGAAGTTATTAAGGGATGAATAATCCTTCAATATAAATATCTCTCACTTATTTAAA | 0.434
ACAGACGAAGGAGCCGCTAAGAAGTTATTAAGGGATGAATAATTCCTCAATATAAATATCTCTCACTTATTTAAA | 0.713
ACAGACGAAGGAGCCGCTAAGAAGTTATTAAGGGATGCATAATCCCTCAATATAAATATCTCTCACTTATTTAAA | 0.968
ACAGACGAAGGAGCCGCTAAGAAGTTATTAAGGTATGAATAATCCCTCAATATAAATATCTCTCACTTATTTAAA | 0.114

Same assay, conditions: experiment (reporter, strain, medium): exp 4a: truncated aprE reporter, strain BJT201 with 2% xylose (RNase J1 expressed); cleavage site: cggR-gapA (positions -7 to +36 mutated)

Sequence | cleaved RNA product abundance
ACAGACGAAGGAGCCGCTAAGAAGTTATTAAGGGATGAATAATCCTTCAATATAAATATCTCTCACTTATTTAAA | 0.597
ACAGACGAAGGAGCCGCTAAGAAGTTATTAAGGGATGAATAATCTCTCAATATAAATATCTCTCACTTATTTAAA | 1.12
ACAGACGAAGGAGCCGCTAAGAAGTTATTAAGGGATGAATAATGCCTCAATATAAATATCTCTCACTTATTTAAA | 0.154
ACAGACGAAGGAGCCGCTAAGAAGTTATTAAGGGATGAATATTCCCTCAATATAAATATCTCTCACTTATTTAAA | 0.667
ACAGACGAAGGAGCCGCTAAGAAGTTATTAAGGGATGAATTATCCCTCAATATAAATATCTCTCACTTATTTAAA | 0.874
ACAGACGAAGGAGCCGCTAAGAAGTTATTAAGGGATGACTAATCCCTCAATATAAATATCTCTCACTTATTTAAA | 0.542
ACAGACGAAGGAGCCGCTAAGAAGTTATTAAGGGATGCATAATCCCTCAATATAAATATCTCTCACTTATTTAAA | 0.814
ACAGACGAAGGAGCCGCTAAGAAGTTATTAAGGGATTAATAATCCCTCAATATAAATATCTCTCACTTATTTAAA | 1.02
ACAGACGAAGGAGCCGCTAAGAAGTTATTAAGGGTTGAATAATCCCTCAATATAAATATCTCTCACTTATTTAAA | 0.377
ACAGACGAAGGAGCCGCTAAGAAGTTATTAAGGTATAAATAATCCCTCAATATAAATATCTCTCACTTATTTAAA | 0.0621
ACAGACGAAGGAGCCGCTAAGAAGTTATTAAGGTATGAATAATCCCTCAATATAAATATCTCTCACTTATTTAAA | 0.296
ACAGACGAAGGAGCCGCTAAGAAGTTATTAAGTGATGAATAATCCCTCAATATAAATATCTCTCACTTATTTAAA | 0.167
ACAGACGAAGGAGCCGCTAAGAAGTTATTAATGGATGAATAATCCCTCAATATAAATATCTCTCACTTATTTAAA | 0.172
ACAGACGAAGGAGCCGCTAAGAAGTTCTTAAGGGATGAATAATCCCTCAATACAAATATCTCTCACTTATTTAAA | 0.0591
ACAGACGAAGGAGCCGCTAAGAAGTTGTTAAGGGATGAATAATCCCTCAATATAAATATCTCTCACTTATTTAAA | 0.503
ACAGACGAAGGAGCCGCTAAGAATTTATTAAGGGATGAATAATCCCTCAATATAAATATCTCTCACTTATTTAAA | 0.468
ACAGACGAAGGAGCCGCTAAGATGTTATTAAGGGATGAATAATCCCTCAATATAAATATCTCTCACTTATTTAAA | 1.18
ACAGACGAAGGAGCCGCTAAGTAGTTATTAAGGGATGAATAATCCCTCAATATAAATATCTCTCACTTATTTAAA | 1.27
ACAGACGAAGGAGCCGCTACGAAGTTATTAAGGGATGAATAATCTCTCAATATAAATATCTCTCACTTATTTAAA | 0.816
ACAGACGAAGGAGCCGCTATGAAGTTATTAAGGGATGAATAATCCCTCAATATAAATATCTCTCACTTATTTAAA | 0.952

Same assay, conditions: experiment (reporter, strain, medium): exp 6: tetM reporter, strain 168; cleavage site: cggR-gapA (positions -7 to +36 mutated)

Sequence | cleaved RNA product abundance
ACAGACGAAGGAGCCGGAAAGAAGTTATTAAGGGATGAATAATCCCTCAATATAAATATCTCTCACTTATTTAAA | 0.897
ACAGACGAAGGAGCCGTAAAGAAGTTATTAAGGCATGAATAATCCCTCAATATAAATATCTCTCACTTATTTAAA | 0.143
ACAGACGAAGGAGCCGTAAAGAAGTTATTAAGGGATGAATAATCCCTCAATATAAATATCTCTCACTTATTTAAA | 1.09
ACAGACGAAGGAGCCTCAAAGAAGTTATTAAGGCATGAATAATCCCTCAATATAAATATCTCTCACTTATTTAAA | 0.157
ACAGACGAAGGAGCCTCAAAGAAGTTATTAAGGGATGAATAATCCCTCAATATAAATATCTCTCACTTATTTAAA | 1.25
ACAGACGAAGGAGCCTCAAAGAAGTTATTAAGTGATGAATAATCCCTCAATATAAATATCTCTCACTTATTTAAA | 0.135
ACAGACGAAGGAGCTGCAAAGAAGTTATTAAGGAATGAATAATCCCTCAATATAAATATCTCTCACTTATTTAAA | 0.134
ACAGACGAAGGAGCTGCAAAGAAGTTATTAAGGGATGAATAATCCCTCAATATAAATATCTCTCACTTATTTAAA | 0.987
ACAGACGAAGGAGTCGCAAAGAAGTTATTAAGGGATGAATAATCCCTCAATATAAATATCTCTCACTTATTTAAA | 1.46

Same assay, conditions: experiment (reporter, strain, medium): exp 8a: truncated aprE reporter, strain BJT201 with 2% xylose (RNase J1 expressed); cleavage site: glnRA (positions -5 to +31 mutated)

Sequence | cleaved RNA product abundance
CGACATGTCCCGCTTCTTTCATAATCCGTTAGCAACTGTTTTGCTATATACATTTACCTTTTAAGAGGAGGAATT | 1.13
CGACATGTCCCGCTTCTTTCATTAAAACGTTAGCAACTGTTTTGCTATATACATTTACCTTTTAAGAGGAGGAAT | 0.868
CGACATGTCCCGCTTCTTTCATTAAACCCTTAGCAACTGTTTTGCTATATACATTTACCTTTTAAGAGGAGGAAT | 0.18
CGACATGTCCCGCTTCTTTCATTAAACCGTAAGCAACTGTTTTGCTATATACATTTACCTTTTAAGAGGAGGAAT | 0.203
CGACATGTCCCGCTTCTTTCATTAAACCGTGAACAACTGTGTTGCAATATACATGTACCTTTTAAGAGGAGGAAT | 0.222
CGACATGTCCCGCTTCTTTCATTAAACCGTTACCAACTGTTTTGCTATATACATTTACCTTTTAAGAGGAGGAAT | 0.189
CGACATGTCCCGCTTCTTTCATTAAACCGTTAGAAACTGTTTTGCTATATACATTTACCTTTTAAGAGGAGGAAT | 0.147
CGACATGTCCCGCTTCTTTCATTAAACCGTTAGCAACAGTTTTGCTATATACATTTACCTTTTAAGAGGAGGAAT | 1.01
CGACATGTCCCGCTTCTTTCATTAAACCGTTAGCAACTGTCTTGCTATATACATTTACCTTTTAAGAGGAGGAAT | 0.759
CGACATGTCCCGCTTCTTTCATTAAACCGTTAGCAACTGTTATGCTATATACATTTACCTTTTAAGAGGAGGAAT | 0.552
CGACATGTCCCGCTTCTTTCATTAAACCGTTAGCAACTGTTTAACTATATACATTTACCTTTTAAGAGGAGGAAT | 0.444
CGACATGTCCCGCTTCTTTCATTAAACCGTTAGCAACTGTTTAGCTATATACATTTACCTTTTAAGAGGAGGAAT | 0.248
CGACATGTCCCGCTTCTTTCATTAAACCGTTAGCAACTGTTTCGCTATATACATTTACCTTTTAAGAGGAGGAAT | 0.164
CGACATGTCCCGCTTCTTTCATTAAACCGTTAGCAACTGTTTTACTATATACATTTACCTTTTAAGAGGAGGAAT | 0.458
CGACATGTCCCGCTTCTTTCATTAAACCGTTAGCAACTGTTTTGATATATACATTTACCTTTTAAGAGGAGGAAT | 0.428
CGACATGTCCCGCTTCTTTCATTAAACCGTTAGCAACTGTTTTGCGATATACATTTACCTTTTAAGAGGAGGAAT | 0.352
CGACATGTCCCGCTTCTTTCATTAAACCGTTAGCAACTGTTTTGCTACATACATTTACCTTTTAAGAGGAGGAAT | 0.237
CGACATGTCCCGCTTCTTTCATTAAACCGTTAGCAACTGTTTTGCTATATAAATTTACCTTTTAAGAGGAGGAAT | 1.02
CGACATGTCCCGCTTCTTTCATTAAACCGTTAGCAACTGTTTTGCTATATACATATACCTTTTAAGAGGAGGAAT | 0.825
CGACATGTCCCGCTTCTTTCATTAAACCGTTAGCAACTGTTTTGCTATATACATTTACCATTTAAGAGGAGGAAT | 1.29
CGACATGTCCCGCTTCTTTCATTAAACCGTTAGCAACTGTTTTGCTATATACATTTACCTTTTAAGAGGAGGAAT | 0.915
CGACATGTCCCGCTTCTTTCATTAAACCGTTAGCAACTGTTTTGCTATATACATTTACTTTTTAAGAGGAGGAAT | 0.665
CGACATGTCCCGCTTCTTTCATTAAACCGTTAGCAACTGTTTTGCTATATACATTTTCCTTTTAAGAGGAGGAAT | 0.432
CGACATGTCCCGCTTCTTTCATTAAACCGTTAGCAACTGTTTTGCTATATACTTTTACCTTTTAAGAGGAGGAAT | 0.534
CGACATGTCCCGCTTCTTTCATTAAACCGTTAGCAACTGTTTTGCTATATAGATTTACCTTTTAAGAGGAGGAAT | 1.35
CGACATGTCCCGCTTCTTTCATTAAACCGTTAGCAACTGTTTTGCTATATCCATTTACCTTTTAAGAGGAGGAAT | 0.0869
CGACATGTCCCGCTTCTTTCATTAAACCGTTAGCAACTGTTTTGCTTTATACATTTACCTTTTAAGAGGAGGAAT | 0.165
CGACATGTCCCGCTTCTTTCATTAAACCGTTAGCAACTGTTTTGTTATATACATTTACCTTTTAAGAGGAGGAAT | 0.313
